Experimental data: paper PMC6060420, “Persulfide Dioxygenase From Acidithiobacillus caldus: Variable Roles of Cysteine Residues and Hydrogen Bond Networks of the Active Site” (Frontiers in Microbiology, 2018)

Assays:
AcPDO = target: T1, AcPDO (Acidithiobacillus caldus, UniProt A0A2P9DTT9); assay: MALDI-TOF MS of tryptic peptides; format: binding; details: covalent; cysteine-GSH adducts at C87, C224, C137 after […] min with […] GSSH, pH […]
T1 construct: gene pdo

[1] = target: persulfide dioxygenase from Acidithiobacillus caldus C-SH12 (AcPDO) (Acidithiobacillus caldus C-SH12); assay: native gel or EMSA; gel of urea-treated AcPDO (Supplementary Figure S6B), urea up to 8 M; 54-kDa dimer band
[2] = target: persulfide dioxygenase from Acidithiobacillus caldus C-SH12 (AcPDO) (Acidithiobacillus caldus C-SH12); assay: SDS-PAGE with Western blot; 10% acrylamide Tris-tricine SDS gel of purified AcPDO, detection with HRP-conjugated anti-Strep-tag antibody
[3] = target: persulfide dioxygenase from Acidithiobacillus caldus C-SH12 (AcPDO) (Acidithiobacillus caldus C-SH12); assay: SEC; gel permeation chromatography, Superose 6 10/300 on an Äkta system, freshly prepared AcPDO (0.5 mg protein); standards cytochrome c, conalbumin, aldolase, catalase
[4] = target: persulfide dioxygenase from Acidithiobacillus caldus C-SH12 (AcPDO) (Acidithiobacillus caldus C-SH12); assay: SEC; gel permeation chromatography, Superose 6 HR 10/30, previously frozen AcPDO, 2 M guanidinium chloride in 150 mM Tris/HCl pH 8, after 1 h at 25°C, 0.5 ml/min; tetramer to dimers

T1 sequence (A0A2P9DTT9 1-235 limits assumed): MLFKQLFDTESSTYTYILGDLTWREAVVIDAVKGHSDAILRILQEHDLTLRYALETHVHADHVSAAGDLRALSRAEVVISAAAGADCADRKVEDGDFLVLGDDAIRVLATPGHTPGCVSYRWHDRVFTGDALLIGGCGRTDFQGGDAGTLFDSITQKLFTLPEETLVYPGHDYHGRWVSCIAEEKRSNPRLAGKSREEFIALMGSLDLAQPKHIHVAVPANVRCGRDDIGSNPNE

Row | Molecule | MALDI-TOF MS of tryptic peptides (AcPDO) | stoichiometry N [1] | stoichiometry N [2] | stoichiometry N [3] [subunits] | stoichiometry N [4]
1 | N[C@@H](CCC(=O)N[C@@H](CSS)C(=O)NCC(=O)O)C(=O)O [GSSH] | cysteine-GSH adducts were identified after the enzyme was incubated with GSSH |  |  |  | 
2 | persulfide dioxygenase from Acidithiobacillus caldus C-SH12 (AcPDO) (enzyme) |  | 2 | 2 | 3.7 | 2
